Assay results published in patent publication US20070135338A1 (published 2007).
No end group written: not given here.

Target: GLP-1R on Rinm cells
Test: cell-based or functional assay

HAEGTFTSDVSSYLEGQAAKEFIAWLVKGRG (not fully specified) [GLP-1 peptide] was tested, and the “cAMP activity in Rinm cells (EC50)” value was 0.4 nM.
